Experimental data from publication PMC4872126, “Mechanistic insight into cadmium-induced inactivation of the Bloom protein”.

B1: F-18 (ssDNA)
DNA: GCCTCGCTGCCGTCGCCA
B2: F-24 ss (ssDNA)
DNA: GCCCTGCTGCCGACCAACGAAGGT
B3: F-40 (ssDNA)
DNA: GCCCTGCTGCCGACCAACGATGGTTACATTCCCGCTGCTG

What was measured:
[1] = biological target: T1, BLM642-1290 (human, UniProt P54132 642-1290); assay: fluorescence anisotropy; 0.5 mM NEM, 2 mM DTT, no Cd2+; 50 mM Tris-HCl pH 8.0, 50 mM NaCl, 1 mM DTT, 25 C; 200 nM protein, 5 nM 3'-fluorescein DNA; details: protein: recombinant; label: 3'-fluorescein
[2] = biological target: BLM full-length (human, UniProt P54132 1-1417); assay: fluorescence anisotropy; IC50 of CdCl2 inhibiting binding (not protein affinity); 200 nM protein, 5 nM DNA; 50 mM Tris-HCl pH 8.0, 50 mM NaCl, 1 mM DTT, 25 C; 200 nM protein, 5 nM 3'-fluorescein DNA; details: protein: recombinant; (Ni-NTA purified); label: 3'-fluorescein
[3] = biological target: RecQ E. coli (Escherichia coli, UniProt P15043 1-609); assay: as above; details: protein: recombinant; label: 3'-fluorescein
[4] = biological target: T1, BLM642-1290; assay: as above; details: protein: recombinant; label: 3'-fluorescein

T1 sequence (P54132 642-1290): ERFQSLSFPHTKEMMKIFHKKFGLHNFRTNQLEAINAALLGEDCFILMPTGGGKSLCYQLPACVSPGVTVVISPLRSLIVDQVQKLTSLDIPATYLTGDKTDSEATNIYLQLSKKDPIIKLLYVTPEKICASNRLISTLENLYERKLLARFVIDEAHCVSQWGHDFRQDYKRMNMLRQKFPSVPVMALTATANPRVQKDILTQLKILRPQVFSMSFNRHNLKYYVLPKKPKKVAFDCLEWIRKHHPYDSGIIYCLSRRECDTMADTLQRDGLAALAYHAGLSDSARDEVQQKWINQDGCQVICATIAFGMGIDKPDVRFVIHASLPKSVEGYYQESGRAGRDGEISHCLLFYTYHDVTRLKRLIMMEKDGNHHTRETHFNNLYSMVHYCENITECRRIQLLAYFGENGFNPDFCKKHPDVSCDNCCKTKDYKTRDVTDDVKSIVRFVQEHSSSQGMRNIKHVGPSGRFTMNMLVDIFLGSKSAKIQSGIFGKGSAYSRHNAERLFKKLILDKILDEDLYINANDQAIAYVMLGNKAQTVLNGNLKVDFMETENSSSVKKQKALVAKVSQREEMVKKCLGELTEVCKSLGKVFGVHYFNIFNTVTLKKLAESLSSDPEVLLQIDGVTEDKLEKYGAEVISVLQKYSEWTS
Sequence of RecQ E. coli (P15043 whole entry): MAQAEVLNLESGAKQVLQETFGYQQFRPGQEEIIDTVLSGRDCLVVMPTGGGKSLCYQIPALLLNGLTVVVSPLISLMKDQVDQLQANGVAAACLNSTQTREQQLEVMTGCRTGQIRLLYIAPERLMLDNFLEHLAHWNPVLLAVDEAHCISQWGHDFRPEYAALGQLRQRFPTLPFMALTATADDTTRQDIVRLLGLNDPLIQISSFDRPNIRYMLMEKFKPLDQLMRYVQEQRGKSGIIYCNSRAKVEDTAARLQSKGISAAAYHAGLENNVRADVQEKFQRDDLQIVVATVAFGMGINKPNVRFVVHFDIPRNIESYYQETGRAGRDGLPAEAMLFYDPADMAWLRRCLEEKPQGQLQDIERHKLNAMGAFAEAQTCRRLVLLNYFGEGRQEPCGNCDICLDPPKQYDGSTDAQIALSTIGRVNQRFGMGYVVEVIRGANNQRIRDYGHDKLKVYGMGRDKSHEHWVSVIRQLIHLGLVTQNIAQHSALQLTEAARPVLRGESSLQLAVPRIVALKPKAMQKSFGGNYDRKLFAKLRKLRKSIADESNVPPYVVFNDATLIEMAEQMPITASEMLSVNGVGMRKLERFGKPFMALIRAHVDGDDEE
Sequence of BLM full-length (P54132 whole entry): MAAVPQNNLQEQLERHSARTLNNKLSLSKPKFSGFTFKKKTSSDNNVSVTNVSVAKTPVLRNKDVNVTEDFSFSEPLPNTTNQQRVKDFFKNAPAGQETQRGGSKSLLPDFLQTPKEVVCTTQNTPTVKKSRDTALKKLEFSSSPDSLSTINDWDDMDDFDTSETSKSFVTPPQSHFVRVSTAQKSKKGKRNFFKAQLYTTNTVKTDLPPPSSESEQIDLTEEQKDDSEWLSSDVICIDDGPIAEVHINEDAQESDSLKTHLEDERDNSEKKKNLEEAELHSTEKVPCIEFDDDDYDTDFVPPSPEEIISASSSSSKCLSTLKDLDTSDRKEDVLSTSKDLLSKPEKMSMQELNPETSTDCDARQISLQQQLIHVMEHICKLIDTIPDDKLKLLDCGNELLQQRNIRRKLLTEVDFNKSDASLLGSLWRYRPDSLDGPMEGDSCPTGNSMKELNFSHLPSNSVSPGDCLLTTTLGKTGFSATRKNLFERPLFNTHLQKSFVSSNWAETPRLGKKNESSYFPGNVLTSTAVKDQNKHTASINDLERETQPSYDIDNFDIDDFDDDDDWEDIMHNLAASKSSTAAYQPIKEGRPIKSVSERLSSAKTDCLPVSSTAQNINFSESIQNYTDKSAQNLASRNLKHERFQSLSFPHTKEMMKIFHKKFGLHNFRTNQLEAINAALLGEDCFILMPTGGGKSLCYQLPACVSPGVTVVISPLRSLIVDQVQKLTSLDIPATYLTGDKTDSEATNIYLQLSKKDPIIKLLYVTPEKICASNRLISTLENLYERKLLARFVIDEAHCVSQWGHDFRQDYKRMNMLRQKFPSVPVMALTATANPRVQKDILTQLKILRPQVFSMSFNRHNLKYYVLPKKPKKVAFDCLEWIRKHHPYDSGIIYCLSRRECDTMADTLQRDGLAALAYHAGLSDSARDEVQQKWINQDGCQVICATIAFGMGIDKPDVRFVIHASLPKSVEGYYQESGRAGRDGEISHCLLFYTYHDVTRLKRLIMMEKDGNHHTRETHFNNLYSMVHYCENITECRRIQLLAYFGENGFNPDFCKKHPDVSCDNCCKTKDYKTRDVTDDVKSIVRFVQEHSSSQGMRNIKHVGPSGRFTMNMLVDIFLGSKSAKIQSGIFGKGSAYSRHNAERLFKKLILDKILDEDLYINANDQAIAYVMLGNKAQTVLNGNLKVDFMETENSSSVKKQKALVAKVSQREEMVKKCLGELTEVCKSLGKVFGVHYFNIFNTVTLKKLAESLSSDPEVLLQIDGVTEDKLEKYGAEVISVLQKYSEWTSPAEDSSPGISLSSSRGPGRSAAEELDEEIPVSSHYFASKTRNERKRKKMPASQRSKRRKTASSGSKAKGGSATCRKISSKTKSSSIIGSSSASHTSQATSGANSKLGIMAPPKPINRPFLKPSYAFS

Row | Binder | binding result [1] | IC50 [2] [µM] | IC50 [3] [µM] | IC50 [4] [µM]
1 | B1 | binds |  |  | 
2 | B2 |  | 6.63 | 40.2 | 10.2
3 | B3 |  | 6.64 | 39.2 | 9.98
